In article PMC6367273:

Assays:
[1] = molecular target: LPHN1-S (FLAG-tagged splice variant of murine LPHN1 with a truncated intracellular tail) (mouse); assay: immunostaining of cells or tissue; HEK-LPHN1-S, HEK-WT and HEK-Puro cells incubated with FITC-K37-mTCAP-1 (1:400) in medium with HEPES pH 7.4 and 0.1% BSA for 12 h at 4°C, washed, fixed, stained with Cy3-tagged FLAG antibody; confocal microscopy; green pixels (intensity 20-255) per cell
[2] = molecular target: LPHN1-S (FLAG-tagged splice variant of murine LPHN1 with a truncated intracellular tail) (mouse)
[3] = molecular target: LPHN1-S (FLAG-tagged splice variant of murine LPHN1 with a truncated intracellular tail) (mouse); remark: listed apart in the source

| green pixels per cell [1] | f-actin (Phalloidin red pixels per cell) in HEK-LPHN1-S cells treated with 100 nM mTCAP-1 for 60 min against vehicle; no significant change in HEK-WT cells [2] | cell height of HEK-LPHN1-S cells treated with 100 nM mTCAP-1 for 60 min against vehicle; no significant change in HEK-WT cells [3] | Substance |
| --- | --- | --- | --- |
| 49.5 pixels/cell |  |  | FITC-tagged K37-mTCAP-1 (peptide) |
|  | 343% | 39% | Mouse TCAP-1 (mTCAP-1), synthetic (peptide) |
